In doi:10.1101/2023.01.25.525455 (bioRxiv, 2023):
Values joined by “and” are separate entries in the source; they are usually repeats but may differ in a detail not shown here. Identical values can stand only once.

What was measured:
purified VPS29 = purified VPS29 (human, UniProt Q9UBQ0 1-182); assay: ITC
recombinant DENND10 = recombinant DENND10 (human, UniProt Q8TCE6 1-357); assay: ITC
Chain of recombinant DENND10 (Q8TCE6 whole entry): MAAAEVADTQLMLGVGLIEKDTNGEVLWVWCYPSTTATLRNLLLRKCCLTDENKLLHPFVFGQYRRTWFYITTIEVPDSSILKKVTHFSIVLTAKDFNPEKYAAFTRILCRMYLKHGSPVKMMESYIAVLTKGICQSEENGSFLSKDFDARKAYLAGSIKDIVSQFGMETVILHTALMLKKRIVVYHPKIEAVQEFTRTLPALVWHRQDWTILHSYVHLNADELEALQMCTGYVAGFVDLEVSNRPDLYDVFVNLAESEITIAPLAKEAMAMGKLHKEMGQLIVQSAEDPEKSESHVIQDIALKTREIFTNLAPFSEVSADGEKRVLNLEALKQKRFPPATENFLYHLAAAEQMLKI

Binder	Kd (purified VPS29)	Kd (recombinant DENND10)
EFASCRLEAVPLEFGDYHPLKPI [synthetic VPS35L peptide (residues Glu16-Ile38)]	1800 nM and 1870 nM	–
EFGDYHPLKP [VPS35L^28-37 peptide]	6800 nM	–
CCDC22-CCDC93 CC1-CC2 complex (CCDC22(325-485) + CCDC93(310-488)), wild type (complex) chain 1: VTWAAQEQELESLREQLEGVNRSIEEVEADMKTLGVSFVQAESECRHSKLSTAEREQALRLKSRAVELLPDGTANLAKLQLVVENSAQRVIHLAGQWEKHRVPLLAEYRHLRKLQDCRELESSRRLAEIQELHQSVRAAAEEARRKEEVYKQLMSELETLP chain 2: GTSQLHRRKVISLNKQIAQKTKHLEELRASHTSLQARYNEAKKTLTELKTYSEKLDKEQAALEKIESKADPSILQNLRALVAMNENLKSQEQEFKAHCREEMTRLQQEIENLKAERAPRGDEKTLSSGEPPGTLTSAMTHDEDLDRRYNMEKEKLYKIRLLQARRNREIAILHRKIDEV	–	28 ± 6 nM
